The target of the data set is NCp7 (nucleocapsid protein) (HIV-1, UniProt P12493 378-432). Put plainly: EMSA; 7.5-300 nM NCp7, 15 nM RNA folded in 50 mM KCl; free G4 decreases from 75 nM, near complete disappearance and faint complex at 300 nM; EMSA: RNA annealed in 10 mM Li cacodylate pH 7.4, 50 mM KCl; 15 nM RNA in 8% glycerol, 30 mM Tris-HCl, 15 mM MgCl2, 50 uM ZnCl2, 37 C; 12% native gel at 4 C.

For GGGAGGCGUGGCCUGGGCGGGACUGGGGAGUGG (structured_RNA) [RNA U3-III+IV G4], the binding result is recorded as “binds”.

(Values after paper PMC6909241.)
